Mean channel fluorescence and value in the 4H11-FITC competition assay, fold against TM23 data for two molecules are collected here from patent US5861155.

The target in assay [1] is human T cell receptor with β chain variable region Vβ 5.2, on HPB-ALL cells (human). In words: flow cytometry on HPB cells, TM27 purified from CHO cells. For orientation: Flow cytometry measures light scatter and fluorescence of single cells or particles in a stream.
The target is the same in assay [2]. In words: flow cytometry on HPB cells, TM27 purified from NSO cells.
Assay [3] shares this target. Put plainly: 4H11-FITC competition assay, competitor label 4H11-FITC (cells not stated in the example).

“And” between values parts separate entries of the source, which are not always exact repeats. Equal entries are not always repeated. Where only a bound is given, the exact number is not on record here.

B1: TM27 (antibody, V domains shown)
VH: QVQLQESGPGLVRPSQTLSLTCTVSGFSLTAYGVNWVRQPPGRGLEWLGMIWGDGNTDYNSALKSRVTMLKDTSKNQFSLRLSSVTAADTAVYYCARDRVTATLYAMDYWGQGSLVTVSS
VL: DIQMTQSPSSLSASVGDRVTITCSASQGISNYLNWYQQTPGKAPKLLIYYTSSLHSGVPSRFSGSGSGTDYTFTISSLQPEDIATYYCQQYSKLPRTFGQGTKLQIT
With B1, the mean channel fluorescence in assay [1] is 283 and 322; in assay [2], 507. The value in the 4H11-FITC competition assay, fold against TM23 in assay [3] is under 3 fold.

B2: TM27I (antibody, V domains shown)
VH: QVQLQESGPGLVRPSQTLSLTCTVSGFSLTAYGVNWVRQPPGRGLEWIGMIWGDGNTDYNSALKSRVTMLKDTSKNQFSLRLSSVTAADTAVYYCARDRVTATLYAMDYWGQGSLVTVSS
VL: DIQMTQSPSSLSASVGDRVTITCSASQGISNYLNWYQQTPGKAPKLLIYYTSSLHSGVPSRFSGSGSGTDYTFTISSLQPEDIATYYCQQYSKLPRTFGQGTKLQIT
In assay [3], B2 returned a value in the 4H11-FITC competition assay, fold against TM23 of under 3 fold.
